Results on one molecule are retold here after PMC3074124.

This data set concerns the target T1, His6-MBNL1 (human, UniProt Q9NR56-5 1-382).
T1 sequence: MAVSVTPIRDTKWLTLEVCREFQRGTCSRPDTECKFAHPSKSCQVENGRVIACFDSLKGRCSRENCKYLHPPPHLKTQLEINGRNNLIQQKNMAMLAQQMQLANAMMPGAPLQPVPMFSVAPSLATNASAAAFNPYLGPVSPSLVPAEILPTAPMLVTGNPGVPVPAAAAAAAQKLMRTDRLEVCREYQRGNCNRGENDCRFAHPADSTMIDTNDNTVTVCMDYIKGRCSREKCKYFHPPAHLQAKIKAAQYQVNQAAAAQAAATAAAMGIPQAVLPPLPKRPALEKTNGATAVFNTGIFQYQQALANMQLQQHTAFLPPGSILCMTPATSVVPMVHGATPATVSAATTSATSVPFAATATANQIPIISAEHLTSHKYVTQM
Kind of data set: EMSA.

B1: DOWN (ssRNA)
RNA: GUAUGACUCACCUGUGCGACCCCUGGUGCCUGCUCCGCGCAGGGCCGGCGGCGUGCCAGGCAGAUGCCUCGGAGAACCCAGGGGUUUCUGUGGCUUUUUGCAUGCGGCGGGCAGCUGUGCUGGAGAGCAGAUGCUUCACCAAUUCAGAAAUCCAAUGCCUUCACUCUGAAAUGAAAUCUGGGCAU
For the molecule B1, the binding result is listed as “binds”.
